Assay results: patent US20120301469A1

Key:
[1] = target: protein F of hRSV strain B-1 (on RSV B-1-infected Hep2 cells and on virus) (human respiratory syncytial virus, strain B-1) (UniProt P13843); experiment: cell-based or functional assay
[2] = target: hRSV FTM-NN (membrane anchorless form of the Long fusion protein, 70 kDa) (human respiratory syncytial virus, strain Long) (UniProt P12568); experiment: SPR (Biacore), FTM-NN amine-coupled on CM5 chip, 1:1 Langmuir fit
[3] = target: protein F of hRSV strain Long, on virus (inactivated hRSV Long, Hytest #8RSV79; RSV Long LM-2, ATCC VR-26) (human respiratory syncytial virus, strain Long) (UniProt P12568); experiment: cell-based or functional assay

Substance	Neutralization B-1 IC50 [1] [nM]	Kd [2] [nM]	koff [2] [s⁻¹]	kon [2] [M⁻¹ s⁻¹]	Neutralization Long IC50 [3] [nM]
101F Fab (WO 06/050280, humanized monoclonal antibody, in-house produced)	180	–	–	–	–
Synagis® Mab (Palivizumab, humanized monoclonal antibody)	3.9	0.64	0.00018	280000	5.96
